B1: Pseudomonas aeruginosa mismatch repair protein MutS (natural protein, UniProt Q9HY08 1-855, looked up)
chain: MTDLSQHTPMMQQYFKLKHQHPDQLMFYRMGDFYELFYEDAKKAAKLLDITLTARGQSGGKAIPMAGIPFHSAEGYLAKLVKLGESVAICEQIGDPATSKGPVERQVVRIITPGTVSDEALLDERRDNLLAAILGDERLFGLAVLDITSGRFSVQEIKGWETLLAELERLNPAELLIPDDWPQGLPAEKRRGVRRRAPWDFDRDSAHKSLCQQFGTQDLKGFGCQNLTLAIGAAGCLLAYAKETQRTALPHLRSLRHDRLDDTVILDGASRRNLELDINLSGGRENTLQSVVDRCQTAMASRLMSRWLNRPLRDRAVLEARQESIACLLERYRFENLQPQLKEIGDLERILARIGLRNARPRDLARLRDALAALPDLQNAMTELEAPHLQALATTIGTYPELAELLAKAIIDNPPAVIRDGGVIKTGYDAELDELQALSENAGQFLMDLEAREKARTGLPNLKVGYNRIHGYFIELPRVQAEQAPADYIRRQTLKGAERFITPELKAFEDKALSAQSRALAREKALYEELLERLIGHLAPLQDSASALAELDVLANLAERALNLDLNRPRFVEHTCLHIEQGRHPVVEQVLETPFVANDLALDADTRMLVITGPNMGGKSTYMRQTALIVLLAHIGSFVPAARCELSLVDRIFTRIGSSDDLAGGRSTFMVEMSETANILHNATDKSLVLMDEVGRGTSTFDGLSLAWAAAEDLARTRAFTLFATHYFELTVLPESQPAVANVHLNATEHNERIVFLHHVLPGPASQSYGLAVAQLAGVPAPVIQRAREHLKRLETTSLPHEMPSQQSGKPASPMQSDLFASLPHPVIDELSRINPDDISPRQALDLLYAWKMRV
B2: Pseudomonas aeruginosa β clamp processivity factor (natural protein, UniProt Q9I7C4 1-367, looked up)
chain: MHFTIQREALLKPLQLVAGVVERRQTLPVLSNVLLVVEGQQLSLTGTDLEVELVGRVVLEDAAEPGEITVPARKLMDICKSLPNDVLIDIRVEEQKLLVKAGRSRFTLSTLPANDFPTVEEGPGSLNFSIAQSKLRRLIDRTSFAMAQQDVRYYLNGMLLEVNGGTLRSVATDGHRLAMCSLDAQIPSQDRHQVIVPRKGILELARLLTEQDGEVGIVLGQHHIRATTGEFTFTSKLVDGKFPDYERVLPRGGDKLVVGDRQQLREAFSRTAILSNEKYRGIRLQLSNGLLKIQANNPEQEEAEEEVQVEYNGGNLEIGFNVSYLLDVLGVIGTEQVRFILSDSNSSALVHEADNDDSAYVVMPMRL
B3: Pseudomonas aeruginosa DNA polymerase IV (Pol IV) (enzyme, UniProt Q9I534 1-349, looked up)
chain: MRKIIHIDCDCFYAALEMRDDPSLRGKALAVGGSPDKRGVVATCSYEARAYGVRSAMAMRTALKLCPDLLVVRPRFDVYRAVSKQIHAIFRDYTDLIEPLSLDEAYLDVSASPHFAGSATRIAQDIRRRVAEELHITVSAGVAPNKFLAKIASDWRKPDGLFVITPEQVDGFVAELPVAKLHGVGKVTAERLARMGIRTCADLRQGSKLSLVREFGSFGERLWGLAHGIDERPVEVDSRRQSVSVECTFDRDLPDLAACLEELPTLLEELDGRLQRLDGSYRPDKPFVKLKFHDFTQTTVEQSGAGRDLESYRQLLGQAFARGNRPVRLIGVGVRLLDLQGAHEQLRLF

What was measured:
[1] = target: B2; assay: native gel or EMSA
[2] = target: B1; assay: native gel or EMSA
[3] = target: B1; assay: SPR
[4] = target: B2; assay: native gel or EMSA; remark: listed apart in the source
[5] = target: B2; assay: SPR

## B1
[1]
  stoichiometry N: 4

## B2
[2]
  Kd: 1.66 ± 0.09 µM
[3]
  koff: 0.111 s⁻¹
  kon: 112000 M⁻¹ s⁻¹

## MQSDLFA [MQSDLFA peptide (7-mer spanning the β clamp binding motif of MutS)]
[4]
  binding result: binds

## B3
[1]
  Kd: 6.22 ± 0.51 µM
  stoichiometry N: 1.09 ± 0.06
[5]
  Kd: 8.97 µM
  koff: 0.0052 s⁻¹
  kon: 580 M⁻¹ s⁻¹
